{"source": "patent US20190023745A1", "key": {"[1]": {"biological_target": "Zika virus MR766 envelope (E) protein, on virus particles (Zika virus strain MR766) (UniProt Q32ZE1)", "test": "cell-based or functional assay"}, "[2]": {"biological_target": "Zika virus H/PF/2013 envelope (E) protein, on virus particles (Zika virus strain H/PF/2013)", "test": "cell-based or functional assay"}}}
{"substance": "EDE1 C8 monoclonal antibody", "values": [{"measurement": "EC50, neutralization in Vero cells", "setting": "[1]", "value": 0.89, "unit": "ng/mL"}]}
{"substance": "EDE1 C10 monoclonal antibody", "values": [{"measurement": "PRNT50 (plaque reduction neutralization test, BHK-21 cells)", "setting": "[2]", "value": 0.024, "unit": "µg/mL"}, {"measurement": "EC50, neutralization in Vero cells", "setting": "[1]", "value": 0.34, "unit": "ng/mL"}]}
